Paper PMC11957191, “The PH domain in the ArfGAP ASAP1 drives catalytic activation through an unprecedented allosteric mechanism” (Research Square, 2025)

T1: ZA domain of ASAP1 (Arf GAP and ankyrin repeat domains), [431–724]ASAP1 (UniProt Q9QWY8 431-724)
T1 construct: Isotopically labelled for the PRE experiment; also called ΔPHZA; isolated ZA domain
T1 sequence (looked up): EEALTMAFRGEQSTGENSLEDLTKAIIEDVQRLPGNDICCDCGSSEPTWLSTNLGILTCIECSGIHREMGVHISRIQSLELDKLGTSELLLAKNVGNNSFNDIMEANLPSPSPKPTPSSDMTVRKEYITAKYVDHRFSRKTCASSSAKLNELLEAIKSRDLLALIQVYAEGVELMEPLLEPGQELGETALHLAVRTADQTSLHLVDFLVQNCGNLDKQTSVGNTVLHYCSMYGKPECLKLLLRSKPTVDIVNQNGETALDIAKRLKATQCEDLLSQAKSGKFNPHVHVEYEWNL


How the values were obtained:
[1] = molecular target: T1, ZA domain of ASAP1 (Arf GAP and ankyrin …); test: NMR intermolecular paramagnetic relaxation enhancement (PRE); Cys159-MTSL myrArf1 with a non-hydrolysable GTP analog on nanodiscs, alone or in complex with wt PH (100 μM), and 100 μM isotopically labeled isolated ZA domain; settings: both partners purified
[2] = molecular target: T2, myristoylated human Arf1 (myrArf1), GTP-bound form at a membrane surface (human, UniProt P84077 1-181, N-myristoylated); test: cell-based or functional assay
T2 sequence (P84077 whole entry, the tested form may be a part): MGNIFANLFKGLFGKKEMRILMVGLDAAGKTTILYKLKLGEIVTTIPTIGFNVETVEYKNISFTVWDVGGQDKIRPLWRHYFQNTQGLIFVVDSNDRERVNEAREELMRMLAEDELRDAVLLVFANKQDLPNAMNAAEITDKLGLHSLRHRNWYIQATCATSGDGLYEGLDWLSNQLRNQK

[3] = molecular target: T2, myristoylated human Arf1 (myrArf1), …; test: other fluorescence titration + other: inhibition of GAP activity; PH domain titrated; (i) rate of mant-GTP dissociation from myrArf1 on LUVs with 5 mol% PI(4,5)P2, followed by FRET from Arf tryptophan to mant-GTP, excess GTP 160 μM; (ii) IC50 of PH domain for GAP activity of 1 nM wt PZA on myrArf1·GTP below the Km; both served as proxies for the affinity; settings: both partners purified

Row | Kd [1] | 'in trans' stimulation of GTP hydrolysis by ZA on myrArf1 (LUVs), relative to wt PH [2] | affinity relative to wt PH [3] | Binder
1 | 100 to 1000 µM | – | – | Cys159-MTSL tagged myrArf1 (natural protein, N-myristoylated; MTSL nitroxide spin label on the native Cys159, also called Arf (in the ZA PRE experiment); source: E. coli, co-expressed with yeast NMT, purified; spin-labelled with MTSL) not shown
2 | – | 0.01 fold of wt PH | ~0.5 fold of wt PH | ΔN14 ASAP1 PH domain, [339–451]ASAP1 (domain or fragment, UniProt Q9QWY8 339-451, looked up, ASAP1 residues 339-451: PH domain without residues 325-338 (the first 14 residues of the wt PH construct); also called ΔN14PH; source: E. coli BL21 Star (DE3) (pET3a) or BL21 (DE3) (pET21), purified (HiTrap SP HP, SEC)) GSEKKGFLLKKSDGIRKVWQRRKCAVKNGILTISHATSNRQPAKLNLLTCQVKPNAEDKKSFDLISHNRTYHFQAEDEQDYIAWISVLTNSKEEALTMAFRGEQSTGENSLED
